The record followed here is US20260151499A1, “ANTIBODY DERIVATIVE AND USE THEREOF” (TSINGHUA UNIVERSITY, priority 2023, published 2026).

Changes are numbered by the printed parent chain. Several values for one entry are separate records, joined by “and”; a condition that tells them apart may be missing. Equal entries are not always repeated. Where two headings read alike, the source gives them in different places.

For this experiment, the target named is T1, NaV1.7 (Homo sapiens, UniProt Q15858).
T1 construct: expressed in transfected cells; host or cells: HEK293
In words: Whole-cell patch clamp, HEK293-NaV1.7 cells. It counts as cell-based. (In general: Patch clamp records ionic current or voltage across a cell membrane.)

Setting [1] is: competitive screening clones, read-out: IC50 ± SEM of NaV1.7-selective Ab-ASF.
[2] abbreviates: non-competitive screening clones, 15 min incubation, read-out: IC50 ± SEM (nM) of Ab-PEG3-ASF in inhibiting NaV1.7.

T1 sequence (Q15858 whole entry): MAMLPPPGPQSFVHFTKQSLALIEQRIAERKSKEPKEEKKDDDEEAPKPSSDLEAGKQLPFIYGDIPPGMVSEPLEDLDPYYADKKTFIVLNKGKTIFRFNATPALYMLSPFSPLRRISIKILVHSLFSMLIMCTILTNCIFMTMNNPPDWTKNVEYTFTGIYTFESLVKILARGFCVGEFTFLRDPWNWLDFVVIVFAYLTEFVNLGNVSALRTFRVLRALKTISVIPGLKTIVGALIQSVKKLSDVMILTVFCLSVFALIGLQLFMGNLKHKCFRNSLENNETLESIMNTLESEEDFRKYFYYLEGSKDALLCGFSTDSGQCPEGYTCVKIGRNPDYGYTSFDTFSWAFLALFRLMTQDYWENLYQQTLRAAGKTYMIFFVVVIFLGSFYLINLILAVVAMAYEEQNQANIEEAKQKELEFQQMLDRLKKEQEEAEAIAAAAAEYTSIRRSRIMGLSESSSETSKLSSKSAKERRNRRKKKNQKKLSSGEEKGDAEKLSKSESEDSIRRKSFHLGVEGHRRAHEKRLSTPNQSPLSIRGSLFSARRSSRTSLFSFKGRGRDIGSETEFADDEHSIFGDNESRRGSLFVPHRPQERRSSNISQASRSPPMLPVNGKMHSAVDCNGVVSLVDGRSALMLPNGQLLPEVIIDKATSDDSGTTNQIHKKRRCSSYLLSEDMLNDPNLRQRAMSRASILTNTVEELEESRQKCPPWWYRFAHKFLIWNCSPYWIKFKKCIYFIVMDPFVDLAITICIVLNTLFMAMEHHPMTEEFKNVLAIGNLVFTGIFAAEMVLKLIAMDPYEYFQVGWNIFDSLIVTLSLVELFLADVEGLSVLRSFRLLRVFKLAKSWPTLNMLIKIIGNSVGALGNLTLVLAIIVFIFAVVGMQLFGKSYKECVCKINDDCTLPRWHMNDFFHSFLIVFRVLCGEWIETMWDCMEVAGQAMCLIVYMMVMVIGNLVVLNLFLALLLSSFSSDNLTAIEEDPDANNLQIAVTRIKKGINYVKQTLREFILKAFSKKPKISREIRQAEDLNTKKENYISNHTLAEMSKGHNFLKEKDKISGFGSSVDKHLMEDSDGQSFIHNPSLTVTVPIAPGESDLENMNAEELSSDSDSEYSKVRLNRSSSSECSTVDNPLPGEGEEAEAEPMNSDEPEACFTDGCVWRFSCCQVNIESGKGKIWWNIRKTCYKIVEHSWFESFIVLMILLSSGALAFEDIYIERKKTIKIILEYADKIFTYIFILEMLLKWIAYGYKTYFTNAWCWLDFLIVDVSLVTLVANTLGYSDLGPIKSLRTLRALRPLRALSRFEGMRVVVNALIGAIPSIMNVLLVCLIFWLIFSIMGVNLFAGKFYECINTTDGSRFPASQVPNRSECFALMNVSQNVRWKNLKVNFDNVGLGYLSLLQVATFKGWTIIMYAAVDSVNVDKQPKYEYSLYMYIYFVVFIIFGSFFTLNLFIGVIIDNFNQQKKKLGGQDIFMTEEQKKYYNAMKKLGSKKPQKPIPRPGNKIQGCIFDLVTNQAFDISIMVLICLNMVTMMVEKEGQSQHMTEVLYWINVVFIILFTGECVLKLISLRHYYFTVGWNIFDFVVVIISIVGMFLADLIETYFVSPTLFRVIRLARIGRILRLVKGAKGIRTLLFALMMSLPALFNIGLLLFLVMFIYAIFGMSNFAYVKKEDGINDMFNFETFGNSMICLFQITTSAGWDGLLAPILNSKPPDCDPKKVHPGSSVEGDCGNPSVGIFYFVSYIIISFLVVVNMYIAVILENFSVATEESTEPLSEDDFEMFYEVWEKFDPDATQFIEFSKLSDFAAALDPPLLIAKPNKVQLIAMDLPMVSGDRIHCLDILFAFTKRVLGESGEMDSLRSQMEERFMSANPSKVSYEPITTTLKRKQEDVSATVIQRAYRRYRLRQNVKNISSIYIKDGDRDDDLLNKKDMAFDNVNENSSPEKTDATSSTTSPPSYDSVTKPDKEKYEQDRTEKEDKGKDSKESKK

B1: 15F9-PEG3-ASF: Ab-UAA 15F9 conjugated to ASF-PEG3-DBCO (conjugate)
VH: EVQLVESGGGLVQPGGSLRLSCAASGFTFSKFWMHWVRQAPGKGLEWVSSISSSSSYIYYADSVKGRFTISADTSKNTAYLQMNSLRAEDTAVYYCARDPISTGAFDIWGQGTLVTVSS
VL: DIQMTQSPSSLSASVGDRVTITCRASQSISSWLAWYQQKPGKAPKLLIYDASSLESGVPSRFSGSRSGTDFTLTISSLQPEDFATYYCQQXYTTPPTFGQGTKLEI
modifications: non-natural residues
notes: Ab-UAA 15F9 conjugated to ASF-PEG3-DBCO
As for B1, the “inhibitory activity against NaV1.7 at 10 nM (in words)” value (10 nM Ab-PEG3-ASF) is on record as “essentially no inhibitory activity”.

B2: 15F7-PEG3-ASF: Ab-UAA 15F7 conjugated to ASF-PEG3-DBCO (conjugate)
VH: EVQLVESGGGLVQPGGSLRLSCAASGFTFSGHWMHWVRQAPGKGLEWVSAISGSGGSTYYADSVKGRFTISADTSKNTAYLQMNSLRAEDTAVYYCAREVTMVRGVTDAFDIWGQGTLVTVSS
VL: B1 VL with S28G, W32D, A34G, A51V, S53N, L54V, E55Q, S56T
modifications: non-natural residues
notes: Ab-UAA 15F7 conjugated to ASF-PEG3-DBCO
Broadly, the IC50 is the point on the concentration scale where inhibition reaches its midpoint. With B2, the “inhibition rate of NaV1.7 at 10 nM” value (10 nM Ab-PEG3-ASF) is listed as “about 60%”. For the same molecule, under setting [1], the concentration for half-maximal inhibition (IC50) was 6.48 nM and 6.5 nM.

B3: A4-PEG3-ASF: IgG1 Ab-UAA A4 conjugated with ASF-PEG3-DBCO (conjugate)
VH: EVQLVESGGGLVQPGGSLRLSCAASGFTFSGHWMHWVRQAPGKGLEWVSGISGSGGSTYYADSVKGRFTISADTSKNTAYLQMNSLRAEDTAVYYCARELTMATTTDAFDIWGQGTLVTVSS
VL: B1 VL with R24Q, S28D, S30R, S31N, W32D, A34N, L46S, D50A, S53R, E55Q
modifications: non-natural residues
notes: IgG1 Ab-UAA A4 conjugated with ASF-PEG3-DBCO
B3: the IC50 under setting [2] was 1.22 ± 0.534 nM.

B4: 15C12-PEG3-ASF: Ab-UAA 15C12 conjugated to ASF-PEG3-DBCO (conjugate)
VH: B3 VH with G50A, T104S, I111F
VL: B1 VL with R24Q, S28D, S31N, W32S, A34N, K45N, D50A, A51T, S53N, E55Q
modifications: not fully specified; non-natural residues
notes: Ab-UAA 15C12 conjugated to ASF-PEG3-DBCO
Consider B4, for which the IC50 under setting [1] turned out to be 0.0395 ± 0.00968 nM.

B5: 15A10-PEG3-ASF: Ab-UAA 15A10 conjugated to ASF-PEG3-DBCO (conjugate)
VH: EVQLVESGGGLVQPGGSLRLSCAASGFPFSGHWMHWVRQAPGKGLEWVSGISGTGATSHYADSVKGRFTISADTSKNTAYLQMNSLRAEDTAVYYCAREVITAASTDAFDLWGQGTLVTVSS
VL: B1 VL with S30G, W32S, A34H, K45T, L46V, D50A, E55Q, S56T
modifications: not fully specified; non-natural residues
notes: Ab-UAA 15A10 conjugated to ASF-PEG3-DBCO
As for B5, the IC50 under setting [1] came to 0.138 ± 0.0414 nM.

B6: H3-PEG3-ASF: IgG1 Ab-UAA H3 conjugated with ASF-PEG3-DBCO (conjugate)
VH: EVQLVESGGGLVQPGGSLRLSCAASGFTFSDYWISWVRQAPGKGLEWIGNVYYSGNAYYNPSLESRVTISADTSKNTAYLQMNSLRAEDTAVYYCARNTGFETLDNWGQGTLVTVSS
VL: B1 VL with K45N, I48M, D50A, E55Q
modifications: non-natural residues
notes: IgG1 Ab-UAA H3 conjugated with ASF-PEG3-DBCO
With B6, under setting [2], the IC50 was 1.13 ± 0.191 nM.
